Substitutions are numbered along the chain they refer to.
How the values were obtained:
[1] = molecular target: T1, PDK1[Thr226Trp] (Homo sapiens, UniProt O15530, T226W); assay: PDK1 protein kinase activity test with T308tide substrate, Thr226Trp mutant; format: biochemical; details: PDK1 CD 50-359, T308tide as substrate
T1 construct: The catalytic domain (CD) of PDK1 50-359 and its mutants Phe224Trp and Thr226Trp were expressed in insect cells and purified; made in house; host or cells: insect cells
T1 sequence (O15530 50-359 T226W): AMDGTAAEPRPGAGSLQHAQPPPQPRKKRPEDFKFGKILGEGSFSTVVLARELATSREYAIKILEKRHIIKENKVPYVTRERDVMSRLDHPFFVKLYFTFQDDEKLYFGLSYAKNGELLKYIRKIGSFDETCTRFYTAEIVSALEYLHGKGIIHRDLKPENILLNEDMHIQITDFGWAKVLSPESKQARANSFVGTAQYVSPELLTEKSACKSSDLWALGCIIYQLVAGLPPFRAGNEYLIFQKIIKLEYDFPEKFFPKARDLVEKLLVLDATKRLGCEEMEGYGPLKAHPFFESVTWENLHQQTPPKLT
Procedure: Protein kinase activity tests: PDK1 activity tests were performed essentially as previously described (Biondi, R. M. et al., Embo. J. 20:4380-4390 (2001); Balendran, A. et al., J. Biol. Chem. 275:20806-20813 (2000); Biondi, R. M. et al., Embo. J. 19:979-988 (2000)) using T308tide as a substrate for PDK1. In brief, PDK1 activity assay was performed at room temperature (22° C.) in a 20 μl mix containing 50 mM Tris pH 7.5, 0.05 mg/ml BSA, 0.1% β-mercaptoethanol, 10 mM MgCl2, 100 μM [γ^32P]ATP (5-50 cpm/pmol), 0.003% Brij, 150 ng PDK1, and T308tide (from 0.1 to 1 mM). When appropriate, the PDK1 activity assay was performed in a 96 well format and 4 μl aliquots spotted with on p81 phosphocellulose papers (Whatmann) using ep motion 5070 (Eppendorf), washed in 0.01% phosphoric acid, dried, and then exposed and analysed using PhosphoImager technology (Typhoon, GE Healthcare). Activity measurements were performed in duplicates with less than 10% difference between pairs. Experiments were repeated at least twice. PDK1 specific activity at 22° C. was approximately 0.25 U/mg when the substrate concentration was 0.1 mM T308tide. […]

[2] = molecular target: T2, PDK1 catalytic domain (Homo sapiens, UniProt O15530); assay: TNP-ATP fluorescence probing of the ATP binding site conformation; format: biochemical; details: 40 μM TNP-ATP, 15 μM PDK1 catalytic domain
T2 construct: The catalytic domain (CD) of PDK1 50-359 and its mutants
T2 sequence (O15530 50-359): T1 sequence (O15530 50-359 T226W) with W177T
Description: Probing the conformation of the ATP binding site in PDK1: The activation of PDK1 by HM-polypeptides and small compounds is due to a change in the conformation of the enzyme. We probed the conformation of the ATP binding site in PDK1 by scanning the steady-state fluorescence of TNP-ATP/PDK1, in the presence or absence of P-HM-polypeptides, PIFtide, or small molecular weight compounds. Data were obtained in a Varian Cary Eclipse spectrofluorometer (excitation λ=479 nm; emission scanning, λ=500-600 nm; excitation slit=10 nm; emission slit=10 nm) at a rate of 200 nm/min, with 150 datapoints/100 nm scanning and 0.3 s averaging time. The incubation was performed at 20° C. in a buffer containing 50 mM Tris pH 7.5, 0.1 mM EDTA, 187 mM NaCl, 40 μM TNP-ATP, 15 μM PDK1 catalytic domain, 1 mM DTT and 1% DMSO. In the absence of PDK1, TNP-ATP produced approximately 1.5 arbitrary units (a.u.) of fluorescence, and the inclusion of PDK1 increased its fluorescence intensity to approximately 3.3 a.u. […] In preliminary tests, inclusion of 2.5 mM MgCl2 in the assay mix produced similar results. Data for each condition are the average of 3 scans.

[3] = molecular target: T3, PDK1 CD wt (Homo sapiens, UniProt O15530); assay: Surface plasmon resonance (BiaCore) on biotin-P-HM-S6K chip; format: binding; details: protein pre-incubated with PIFtide
T3 construct: PDK1 CD (50-359), wt (0.35 μM), PDK1 [Phe224Trp] or PDK1 [Thr226Trp] were injected onto the system; GST (N); made in house; host or cells: insect cells
T3 sequence (O15530 50-359): T1 sequence (O15530 50-359 T226W) with W177T
Procedure: (§1) Surface Plasmon resonance (BiaCore) and alpha-screen interaction and displacement assays: Binding of GST-PDK1 to a P-HM-polypeptide derived from S6K1 shown in FIG. 6 was analysed by surface plasmon resonance on a BiaCore 3000 system using a streptavidin-coated Sensor chip (SA) and biotin-P-HM-polypeptide, as previously described (Biondi, R. M. et al., Embo. J. 20:4380-4390 (2001). The interaction of His-PDK1 with biotin-PIFtide and the displacement by compounds shown in FIG. 3 was performed using the alpha-screen Ni-Chelate kit (Perkin Elmer) on an Envision 2104 multilabel system (Perkin Elmer).
(§2) BiaCore analysis was performed as described previously (Biondi, R. M. et al., Embo. J. 19:979-988 (2000)). […] Since both mutants were performed on the same construct of PDK1, their mass should be very similar and therefore should also produce 600RU when all biotin-(P)HM-S6K polypeptides on the same chip are bound to the mutant PDK1 proteins. Unfortunately, when mutant PDK1 Phe224Trp and PDK1 Thr226Trp were analysed, the injection of the mutants at concentrations higher than 1.3 μM prompted unspecific effects, therefore making difficult the evaluation. […]

[4] = molecular target: T1, PDK1[Thr226Trp]; assay: Surface plasmon resonance (BiaCore) on biotin-P-HM-S6K chip, Thr226Trp mutant; format: binding; details: protein pre-incubated with PIFtide
Procedure: as §1, §2

effect on TNP-ATP fluorescence intensity in the presence of PDK1 [2]: decreased | displacement by PIFtide of PDK1 binding to biotin-P-HM-S6K [3]: displaced | displacement by PIFtide of PDK1[Thr226Trp] binding to the chip [4]: displaced
Sequence: REPRILSEEEQEMFRDFDYIADWC [PIFtide, polypeptide derived from the C-terminal 24 amino acids of the PDK1 substrate PRK2]
activation of PDK1[Thr226Trp] [1]: not activated
